Target: the molecule itself
Assay: crystal structure; co-crystal of BNP7787-modified Prx 4 from 1.6 M ammonium sulfate, 0.1 M MES pH 6.5, 10% dioxane; 2.3 Å, space group C2; five molecules in the asymmetric unit, decamer generated by crystal symmetry

B1: human peroxiredoxin 4 (Prx 4) carrying a BNP7787-derived mesna adduct (enzyme, UniProt Q13162 79-271, looked up)
chain: AKISKPAPYWEGTAVIDGEFKELKLTDYRGKYLVFFFYPLDFTFVCPTEIIAFGDRLEEFRSINTEVVACSVDSQFTHLAWINTPRRQGGLGPIRIPLLSDLTHQISKDYGVYLEDSGHTLRGLFIIDDKGILRQITLNDLPVGRSVDETLRLVQAFQYTDKHGEVCPAGWKPGSETIIPDPAGKLKYFDKLN
modifications: BNP7787-derived mesna mixed disulfide on Cys 124 (in all molecules of the decamer); whole protein mass spectrometry consistent with two mesna adducts, the second proposed on Cys 245 (not visible in the electron density)
notes: Peroxiredoxin 4, human, wild type; No density beyond residue 242 in the crystal; TEV cleavage is described only for Grx 1; also called Prx IV; BNP7787-modified Prx 4; source: E. coli BL21(RIPL), purified (Ni2+ IMAC, size exclusion), reduced with DTT, then incubated with 40 mM BNP7787; copies: 10
stoichiometry N: 10
